Test: yeast display, Sf9 membrane polyspecificity reagent, FACS + sequencing; frameworks hold sequencing errors
Summary of the method: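 After 36–48 hours of galactose induction, yeast (Saccharomyces cerevisiae BJ5465) displaying a synthetic nanobody library were stained at 4 °C for 1 hour with 10% biotinylated, detergent-solubilized Sf9 membrane reagent. Streptavidin microbeads enriched the stained cells before FACS sorting into low and high (top ~1%) gates on anti-HA and streptavidin fluorescence. Each clone's polyreactivity label reflects its gate of origin.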

Sequence	polyreactivity (PSR sort gate)
QVQLVESGGGLVKARGSLRLSFAASGSTFLVYAMGWYRQAPGKEREFVAAITWSGGYTYYADSVKGRFTISRDNAKNTVYLQMNSLKPEDTSVYYSAAEIQRTYSWEYPYEMYWGQGTQVTVSS	high polyreactivity
QVQLVESGGGLVLAGGRLRLSCAASGRTFYVYTMGWYRQAPGKEWELVAGISYSGGSTYYADSVMGRFTISRDNAKNTVYLQMNSLKPEDTAVYYCNAELYCPYFDGKTRHGGYWGQGTQVTVSS	low polyreactivity
QVQLVESGGGLVLAGGSLRLSCAASGFTFFIYVMGWYRQAPGKEREFVAAISSSGDSTYYADSVKGRFTISRDNAKNTVYLQMNSLKPEDTAVYYCNAGDKFSSYWYDYWGQGTQVTVSS	low polyreactivity
QVQLVESGGGLVLAGGSLRLSCAASGFTFRKNAMGWYRQARGKERELVAAINSSGGSTYYADSVKGRFTISRDNAKNTVYLQMNSLKPEDTAVFYCNAVGRSLARPRGDYWGQGTQVTVSS	high polyreactivity
QVQLVESGGGLVLAGGSLRLSCAASGNILIGNVMGWYRPAPGKERELVAAITSGGDTYYADSVKGRFTISRDNAKNTVYLQMNSLNPEDTAVYYCAADRPGQPKYEYWRQGTQVTVSS	low polyreactivity
QVQLVESGGGLVLAGGSLRLSCAASGRIFRGYAMGWYRQAPGKERELVAGITWGAGRTYYADSVKGRFTISRDNAKNTVYLQMNSLKPEDTAVYYCAAYYSQDSRRKYDYWGQGTQVSVSS	high polyreactivity
QVQLVESGGGLVLAGGSLRLSCAASGRIFRWYAMGWYRQAPGKERELDATISSTGGSTYYADSVKGRFTISRDNAKNTVYLQMNSLKPEDTAVYYCNAVVYGIFLYAWYDYWGQVTQVTVSS	low polyreactivity
QVQLVESGGGLVLAGGSLRLSCAASGRTFIGYALGWYRQAPGKERELVAAISPGGSTKYADSVKGRFTISRDNAKNTVYLQINSLKPEDNAVYYGAVGWSYYAGLRHRYYSGFDYWGQGTQVTVSS	low polyreactivity
QVQLVESGGGLVLAGGSLRLSCAASGRTFKENAKGWYRQAPGKARELVAVINSGGRTYYAVSVKGSFTISRDNAKNTVYLQMNSLKPEDSAVYYCAAYSRSKESGYWGQGTQVTVSS	high polyreactivity
QVQLVESGGGLVLAGGSLRLSCAASGRTYYAYTMGWYRKAPRKERELVAAISGSGSTTYYADSVKGRFTISRDNAKNTVYLQMNSLKPEDTAVFYCAADFFAGTQRTFDYWGQGTQVTVSS	high polyreactivity
QVQLVESGGGLVLAGGSLRLSCAASGSIFGGYAMGWYRPAPGKERELVAAISSGDSTYYADSVKGRFTISRDNAKNTVYLQINSLKPEDTAVYYCAAAFFARDRKRYNYWGQGTQVTVSS	high polyreactivity
QVQLVESGGGLVLAGGSLRLSCAASGSIFKNYAMGWYGQAPGKVRELVAAITRGTYYADSVKGRFTISRDNAKNTVYLQMNSLKPEDTAVYYCNREYWGRGYYRVRGEYDYWGQGTQVTVSS	low polyreactivity
QVQLVESGGGLVLAGGSLRLSCAASGSILTFYAMGWYRQAPGKERELVARITLIVARTNYADSVKARFTISRDNAKNTVYLQMNSLKPEDTAVYYCAKRDGDSGIGFGYWGQGTQVTVSS	low polyreactivity
QVQLVESGGGLVLAGGSLRLSCAASGSTFVQNAMGWYRQAHGKERELVAAITFGGGSTYYADSVKGRFTISRDNAKNTVYLQMNSLKPEDTAVYYCAVEVGNPQLAYSYDYWGQGTQVTVSS	low polyreactivity
QVQLVESGGGLVLAGGSLRLSCAASGSTFVYYAMGWYRQAPGKERELVAAISRSGGSTYYADSVKGRFTISRDNAKNTVYLQMNSLKPEDTAVYYCAAKVRFTRRYDYWGQGTQVTVSS	high polyreactivity
QVQLVESGGGLVLAGGSLRLSCPASGSIFGGYAMGWYRQAHGKERELVAAISYRGASTYYADSVKGRFTISRDNAKNTVYLQMNSLKPEDTAVYYCAVAARTRARVLYGYDYWGQGTQVTVSS	low polyreactivity
QVQLVESGGGLVPAGGSLRLSCAASGFIFHGYAIGWYREAPGKEMELVAAISGTGGSTYYADSVKGRFTISRDNAKNTVYLQMNSLKPEDTAVYYCNARRVRSDRRGGDYWGQGTQVTVSS	high polyreactivity
QVQLVESGGGLVPAGGSLRLSCAASGLTFGRYAMRSYRQAPGKEREMVARISRSGGRTYYADSVKGRFTISRDNAKNTVYLQMNSLKPEDTAVYYCAATGSYYGGDHDYWGQGTQVTVSS	high polyreactivity
QVQLVESGGGLVPAGGSLRLSCAASGLTIYHYAMGWYRQAPGKERELVAAISYSGGSTYYADSVKGRFTISRDNAKNTVYLQMNSLKPEDTAVYYCAAYARHYGTSSLRYDYWGQGTQVTVSS	high polyreactivity
QVQLVESGGGLVPAGGSLRLSCAASGRIYARNAMGWYRKAPGKERDLVAAISSRGSSTYYADSVKGRFTISRDTAKNTVSLQMNSLKPEDTAVYYCNAYYSVYPPGYDYWGQGPQVTVSS	high polyreactivity
QVQLVESGGGLVPAGGSLRLSCAASGRSLSRYTMGWYRQAPGKERELVAAISTSGSTYYADSVKGRFTISRDNAKNTVYLQMNSLKPEDTAVYFCNAVRRYLQYATGYAYWGQGTQVTVSS	high polyreactivity
QVQLVESGGGLVPAGGSLRLSCAASGRTFRFNAMGWYRQAPGKERELVAAITKSSGSTDYADSVKGRFTISRDNAKNTVYLQMNSLKPEDSAVYYCAVRIFVPYYSDWSFPTQYNYWGQGTQLTVSS	high polyreactivity
QVQLVESGGGLVPAGGSLRLSCAGSGFIFYKYAMGWYRQAPGKERELVAAITRGGSTNYADSVKGRFTSSRDKAKNTVYLQMNSLKPEDTAVYYCAAGNRYGVRQLYQIVTRYYWGQGTQVTVSS	high polyreactivity
QVQLVESGGGLVPAGGSLRLSWAASGRTFTRNAMGWYRQAPGKERELVAVITSSGRTNYADSVKGRVTISRDNAKNTVYLQMNSLKPEDTAVYYCNKVSARYPYPLYDYWGQGTQVTVSS	high polyreactivity
QVQLVESGGGLVPARGSLRLSCAASGFIFSDNAMGWYRQAPGKERELVAAITDDGDTTYYADSVKGSFTISRDNAKNTVYLQMISLKPEDTAVYYCATEIEDVEDSGPYYYVGYGYWGQGTQVTVSS	high polyreactivity
QVQLVESGGGLVPARGSLRLSCAASGRIFRYYAMGWYRQAPGKERELVAAISGNGGRTSYADSVKGRFTISRDNAKITVSLQMTSLKPEDTAVYYCNAASVNGCRDFDYWGQGTQVTVSS	high polyreactivity
QVQLVESGGGLVPSGGSLRLSCAASGGIFYFNAMGWYRQAPGKERELVASITWSGGNTYYADSVKGRFTISRDNAKNTVSLQMNSLKPEDTAVYYSAADTQEYRPTYDYWGQGTQVTVSS	low polyreactivity
QVQLVESGGGLVQAAGSLLLSCAASGSTFYYYAMGWYRQAPRKDRELVAAISRGGGSTYYADSVKGRFTISRDNAKTTVYLQMNSLKPQDTAVYYCYVSRFDSWGQGTKVTVSS	high polyreactivity
QVQLVESGGGLVQAAGSLRLICAASGRIFDVYAMGWYRPAPGKERELVAAITWSGTSTYYADSVKGRFTISRDNAKNTVYLQMNSLKPEDTAVYYCAAEVAYTDTEYFWYYYWGQGTQVTVSS	high polyreactivity
QVQLVESGGGLVQAAGSLRLSCAASGFIFRYNVMGWYRQAPGKERELVAAISTSGGRTYFADSEKGRFTISRDNAKNTGYLQMNSLKPEDTEVYYCNAVKSEGQKVRDGYYWGQGTQVTVSS	high polyreactivity

Reference: the nanobody polyreactivity screen of Harvey et al. (2022)
